B1: MW11-h317 (humanized anti-PD-1 monoclonal antibody) (antibody, V domains shown)
VH: EVQLVESGGGLVKPGGSLRLSCAASGFTFSSYDMSWVRQAPGKGLEWVATISGGGSYTYYPDSVKGRFTISRDNAKNSLYLQMNSLRAEDTAVYYCASPDSSGVAYWGQGTLVTVSS
VL: DIVMTQSPLSLPVTPGEPASITCKASQDVETVVAWYLQKPGQSPRLLIYWASTRHTGVPDRFSGSGSGTDFTLKISRVEAEDVGVYYCQQYSRYPWTFGQGTKLEIK
B2: MW11-h317 Fab (Fab, V domains shown)
VH: B1 VH
VL: B1 VL
notes: heavy chain of the Fab in the structure deposited here (PDB 6JJP); light chain of the Fab in the structure deposited here (PDB 6JJP); The methods speak of plasmids encoding VL and VH; also called MW11-h317 Fab fragment; source: HEK 293, co-transfected with two plasmids; purified from supernatant (Protein G, HiTrap Capto S)

How the values were obtained:
[1] = target: recombinant human PD-1 protein (residues 21-167) (human) (UniProt Q15116); assay: ELISA; blocking: plates coated with 0.5 ug/mL PD-1 (21-167); antibody from 3 ug/mL, 1.5-fold dilutions, 37 °C 120 min; then 1 ug/mL PD-L1-mFc, detected with HRP-anti-mouse Fc
[2] = target: T1, human PD-1 extracellular domain (residues 21-167) (Homo sapiens, UniProt Q15116, N-linked glycans seen at N49, N58 and N116 (N58: two N-acetylglucosamines, one fucose and two mannoses; N49 and N116: one N-acetylglucosamine modelled); N74 ambiguous); assay: crystal structure; PD-1 (21-167) and MW11-h317 Fab mixed 1:2, complex purified on Superdex 200; crystals at 16 °C in 0.1 M Bis-Tris pH 6.5, 28% PEG monomethyl ether 2000; 2.9 Å; two complexes per asymmetric unit; conditions: both partners purified
T1 construct: Construct used for the complex with MW11-h317 Fab and its crystal structure; also called hPD-1; Programmed cell death protein 1; source: CHO cells, electrotransfected; purified from supernatant by a nivolumab-coupled resin
T1 sequence (Q15116 21-167): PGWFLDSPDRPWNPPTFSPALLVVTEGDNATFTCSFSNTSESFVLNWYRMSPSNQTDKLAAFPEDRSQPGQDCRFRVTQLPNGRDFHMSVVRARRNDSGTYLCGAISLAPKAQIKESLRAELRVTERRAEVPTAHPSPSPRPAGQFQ

Chain of recombinant human PD-1 protein (residues 21-167) (human) (Q15116 21-167): as above

| Binder | IC50 [1] | stoichiometry N [2] |
| --- | --- | --- |
| B1 | 1.4 nM |  |
| B2 |  | 1 |

— publication PMC6814707 (Communications Biology, 2019)
